Data: publication PMC5148205

Molecular target: T1, H-NS (Shewanella oneidensis MR-1) (UniProt Q8ECJ6)
T1 sequence: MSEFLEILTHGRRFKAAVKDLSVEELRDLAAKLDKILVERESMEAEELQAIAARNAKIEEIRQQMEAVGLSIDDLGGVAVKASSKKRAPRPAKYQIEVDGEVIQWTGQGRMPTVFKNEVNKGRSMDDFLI
Assay: EMSA
Details: H-NS incubated with biotin-labelled probe with or without unlabelled probe, 1 h at different temperatures; binding buffer not stated (refers to Liu et al. 2015)

Sequence: TAGCGATGAAATGGCTTTTTGGGTGGCGGTTTATCGTGATTAACGCAGAAGGTGAAGCGTGGTACATCGATGTTAAACCTGATGCCAAAGTAAAACCTGTTGGTAAAAATAAGGACGGTGCATAATGTTTCAGCAAGAAATAGAAGCTATGCAGGGTAAAGTGGTGCAGCAG (double strand) [PSO_3012 (LambdaSo excisionase promoter)]
- binding: no binding

Sequence: GATTTTCTAGTGACAGAAGGTTTTAGCGTTGATAATGCCAAATATGCTGAATTATTTTTGAGACCGAGTAAATTTCTTAGGGGACCAAAAAAACGCATATAATACAATGGATAATGCAATTTAGGTGAGCAAAGGGGACCGTTTTTACCCCGTTTATTCATGCTTCATAACCATCTAATCTCAGGGTTGTAGACGTTTATTCACAACTCTGAGGACGATTATGAACACAACTCTCAC (double strand) [PalpA (alpA promoter)]
- binding: binds
